Results taken from PMC11552376, “Specific binding between Arabidopsis thaliana phytochrome-interacting factor 3 (AtPIF3) bHLH and G-box originated prior to embryophyte emergence” (BMC Plant Biology, 2024).
One block for each molecule: values may come before it.

Experiments:
[1] = target: AtPIF3-bHLH K362A mutant (Arabidopsis thaliana) (UniProt O80536); test: SEC; Superdex75 size exclusion column, UV trace at 280 nm, compared with molecular weight standards (albumin, carbonic anhydrase, cytochrome c, vitamin B12); gel filtration buffer of the methods: 30 mM HEPES, 500 mM NaCl, pH 7.4; oligomeric state of the protein with itself
[2] = target: the molecule itself; test: as above
AtPIF3-bHLH WT [3] = target: T1, AtPIF3-bHLH WT (Arabidopsis thaliana, UniProt O80536 340-397); test: ITC; ITC: 30 mM HEPES, 125 mM NaCl, pH 7.5, 25 C, 400 uM protein into 40 uM DNA; fEMSA: 30 mM HEPES, 500 mM NaCl, pH 7.4, on ice 30 min, 3 uM probe, 10% native gel in 0.5x TBE at 4 C; details: protein: recombinant; tags: C-terminal His6; chain copies: 2; blunt
T1 sequence: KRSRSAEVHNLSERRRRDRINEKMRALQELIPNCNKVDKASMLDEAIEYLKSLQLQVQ

AtPIF3-bHLH WT [4] = target: T1, AtPIF3-bHLH WT; test: EMSA; DNA:protein 1:1 to 1:20; ITC: 30 mM HEPES, 125 mM NaCl, pH 7.5, 25 C, 400 uM protein into 40 uM DNA; fEMSA: 30 mM HEPES, 500 mM NaCl, pH 7.4, on ice 30 min, 3 uM probe, 10% native gel in 0.5x TBE at 4 C; details: protein: recombinant; tags: C-terminal His6; chain copies: 2; label: 5' fluorescein; blunt

- stoichiometry N [1]: 2
Molecule: AtPIF3-bHLH K362A mutant (from UniProt O80536 343-392) (domain or fragment)

B1: AtPIF3-bHLH M399A mutant (domain or fragment, Arabidopsis thaliana, UniProt O80536 343-399, looked up)
chain: RSAEVHNLSERRRRDRINEKMRALQELIPNCNKVDKASMLDEAIEYLKSLQLQVQIA
notes: bHLH domain of PIF3 (AT1G09530), Arabidopsis thaliana, with M399A; Site-directed mutant of m1
- stoichiometry N [2]: 2

B2: G-box (PER2), ITC (dsDNA)
DNA 1: AGGAACACGTGACCC
DNA 2: GGGTCACGTGTTCCT
- Kd (AtPIF3-bHLH WT [3]): 320 ± 14 nM

B3: pPIL1 G-box (dsDNA)
DNA 1: GCATTCACGTGAAGT
DNA 2: ACTTCACGTGAATGC
- binding result (AtPIF3-bHLH WT [4]): binds

B4: Arabidopsis thaliana PIF3-bHLH (AtPIF3-bHLH) recombinant protein, wild type (domain or fragment, UniProt O80536 340-399, looked up)
chain: KRSRSAEVHNLSERRRRDRINEKMRALQELIPNCNKVDKASMLDEAIEYLKSLQLQVQIM
notes: Cloned between NheI and XhoI of pET21b; also called PIF3-bHLH–His6; WT; source: E. coli Rosetta (DE3), pET21b, purified (HisTrap FF, Superdex75 gel filtration); not shown: His6, C-terminal, kept
- stoichiometry N [2]: 2
